This is an account of results in PMC4402518.

For this series, the target named is Hop2;Mnd1 (Giardia lamblia ATCC 50803;Giardia lamblia ATCC 50803) (UniProt E2RTU1). Nature of the series: fluorescence anisotropy. Particulars: Fluorescence anisotropy: 20 mM Tris-HCl pH 7.5, 100 mM NaCl, 5 mM MgCl2, 25 C, 50 nM DNA, triplicate, Exo I assay conditions not in material.

“GCGGGTAATCCAGATGTTCCACGTGAAACAGAACAACTAA (double strand) [40 bp dsDNA]” yielded a Kd (5 mM Mg2+) of 100 nM. The same sequence showed a binding signal (fold weaker than with 5 mM Mg2+) (no Mg2+) of 10.

What is called Kd is the equilibrium constant for the complex coming apart. A higher Kd goes with weaker binding.
